What was measured:
MBP-Kif2b-CT = assay: GST pull-down, anti-MBP blot quantified; conditions: purified MBP-Kif2b deletions; n = 3; parent: 1.0; read off a plot
MBP-Kif2b-NT = assay: GST pull-down, anti-MBP blot quantified; conditions: purified MBP-Kif2b deletions; parent: 1.0; read off a plot

ratio to parent (MBP-Kif2b-CT) | ratio to parent (MBP-Kif2b-NT) | Substance
0.42 | 1.1 | GST-SKAP (from UniProt Q9Y448) S232A; S237A; T294A
0.87 | 15 | GST-SKAP (from UniProt Q9Y448) S232E; S237E; T294E
